# Assay results reported in patent US20090214547A1 (published 2009).
# B1: 26-5F12.1 (antibody, V domains shown)
# VH: VKLQESGAEVKKPGASVKVSCTASGYIFTSYAIHWVRQAPGQRLEWMGWINAGYGNTKYSQKFQGRVSITRDKSASTAYMELSSLRSEDTAVYYCARRGQQLAFDYWGQGTTVTVSS
# VL: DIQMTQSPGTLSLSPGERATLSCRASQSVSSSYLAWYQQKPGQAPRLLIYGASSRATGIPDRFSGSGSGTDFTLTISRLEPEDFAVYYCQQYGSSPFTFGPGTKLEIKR
# notes: also called PdB26-5F12.1
# Molecular target: T1, Pneumolysin, 57 kDa (full length w/His-tag) (Streptococcus pneumoniae, UniProt Q04IN8 2-471)
# T1 construct: also called Antigen; PLY
# Assay: SPR, Mab captured on Protein-G chip
# T1 sequence (Q04IN8 2-471): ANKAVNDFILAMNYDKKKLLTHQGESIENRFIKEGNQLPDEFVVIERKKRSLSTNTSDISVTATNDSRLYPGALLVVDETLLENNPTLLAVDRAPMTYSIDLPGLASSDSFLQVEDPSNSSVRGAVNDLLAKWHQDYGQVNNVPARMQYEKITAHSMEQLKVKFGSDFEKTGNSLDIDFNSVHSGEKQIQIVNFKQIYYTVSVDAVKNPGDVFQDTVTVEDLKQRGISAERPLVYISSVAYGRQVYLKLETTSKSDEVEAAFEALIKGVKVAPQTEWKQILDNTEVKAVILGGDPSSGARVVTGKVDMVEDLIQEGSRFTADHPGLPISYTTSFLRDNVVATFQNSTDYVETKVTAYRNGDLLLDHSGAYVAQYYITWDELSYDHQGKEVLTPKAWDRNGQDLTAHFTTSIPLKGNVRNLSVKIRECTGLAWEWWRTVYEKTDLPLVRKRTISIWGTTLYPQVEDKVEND
binder,measurement,value
B1,Kd,0.82 nM
same,koff,0.00043 s⁻¹
same,kon,530000 M⁻¹ s⁻¹
